Source: PMC4038064
Where two headings read alike, the source gives them in different places.

Columns and labels:
[1] = target: Neuropilin-1 domains b1b2 (Nrp1-b1b2); assay: in vitro plate binding assay
[2] = target: Neuropilin-1 domains b1b2 (Nrp1-b1b2); assay: ITC
[3] = target: Neuropilin-1 domains b1b2 (Nrp1-b1b2); assay: in vitro plate binding assay; remark: listed apart in the source

| Molecule | IC50 [1] [µM] | Ka [2] [M⁻¹] | Kd [2] [µM] | dH [2] [kcal/mol] | stoichiometry N [2] | IC50 [3] [µM] |
| --- | --- | --- | --- | --- | --- | --- |
| Sema3A.2 peptide (Sema3A, furin cleavage site 2) | 34 | – | – | – | – | – |
| Sema3E.3 peptide (Sema3E, furin cleavage site 3) | 0.76 | – | – | – | – | – |

Now from value to molecule:

| IC50 [1] [µM] | Ka [2] [M⁻¹] | Kd [2] [µM] | dH [2] [kcal/mol] | stoichiometry N [2] | IC50 [3] [µM] | Molecule |
| --- | --- | --- | --- | --- | --- | --- |
| – | 101000 | 10 | -17 | 1 | 4.7 | WDQKKPRNPR [Sema3F C-terminal peptide, C-1 proline variant (S3F-PR)] |
| – | – | 33 | -18.5 | 1 | 11 | WDQKKPRNRR [Sema3F C-terminal peptide, wild type (S3F-RR)] |
| – | – | – | – | – | 28 | WDQKKPRNDR [Sema3F C-terminal peptide, C-1 aspartate variant (S3F-DR)] |
